We go through one molecule from paper PMC3417418 (2012).

Test [1] concerns the target T1, CXCR3 (Homo sapiens, UniProt P49682).
T1 chain: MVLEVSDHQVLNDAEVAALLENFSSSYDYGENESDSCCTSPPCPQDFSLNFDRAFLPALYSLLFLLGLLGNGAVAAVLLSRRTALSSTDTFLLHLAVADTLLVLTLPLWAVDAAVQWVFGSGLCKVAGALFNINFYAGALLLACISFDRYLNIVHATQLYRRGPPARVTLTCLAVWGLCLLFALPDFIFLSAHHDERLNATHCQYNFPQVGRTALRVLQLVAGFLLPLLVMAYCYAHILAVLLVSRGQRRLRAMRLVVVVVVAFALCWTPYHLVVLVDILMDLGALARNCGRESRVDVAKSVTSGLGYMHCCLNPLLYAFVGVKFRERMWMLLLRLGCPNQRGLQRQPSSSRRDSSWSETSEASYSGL
Briefly: competition with 125I-CXCL11 on L1.2 cells.

Test [2] concerns the target T1, CXCR3. In words: competition with 125I-CXCL10 on L1.2 cells.
In test [3] the target is T2, CXCR3 (Homo sapiens, UniProt P49682).
T2 chain: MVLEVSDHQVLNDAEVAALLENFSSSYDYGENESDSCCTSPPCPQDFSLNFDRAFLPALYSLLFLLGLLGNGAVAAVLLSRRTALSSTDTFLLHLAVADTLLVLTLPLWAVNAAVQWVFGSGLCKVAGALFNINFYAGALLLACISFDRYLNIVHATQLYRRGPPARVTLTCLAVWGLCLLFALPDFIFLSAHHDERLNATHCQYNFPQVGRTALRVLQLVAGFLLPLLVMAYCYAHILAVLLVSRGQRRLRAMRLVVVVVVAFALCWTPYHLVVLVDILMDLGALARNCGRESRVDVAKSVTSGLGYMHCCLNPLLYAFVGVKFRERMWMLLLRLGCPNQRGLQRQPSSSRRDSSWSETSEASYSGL
In words: homologous competition 125I radioligand binding on L1.2 cells.

For test [4], the target named is T3, CXCR3 (Homo sapiens, UniProt P49682).
T3 chain: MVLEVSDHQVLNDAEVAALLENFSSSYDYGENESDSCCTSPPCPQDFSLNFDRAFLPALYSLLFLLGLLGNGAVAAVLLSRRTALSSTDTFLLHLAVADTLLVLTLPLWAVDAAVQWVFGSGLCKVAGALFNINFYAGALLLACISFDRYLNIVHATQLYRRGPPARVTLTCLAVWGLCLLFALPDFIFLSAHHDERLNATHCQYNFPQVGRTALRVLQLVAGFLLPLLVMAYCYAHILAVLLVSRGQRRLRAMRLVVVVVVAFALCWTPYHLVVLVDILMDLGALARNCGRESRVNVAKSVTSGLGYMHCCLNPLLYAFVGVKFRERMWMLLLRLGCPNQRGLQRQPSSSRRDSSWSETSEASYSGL
Described as above.

The target in test [5] is T4, CXCR3 (Homo sapiens, UniProt P49682).
T4 chain: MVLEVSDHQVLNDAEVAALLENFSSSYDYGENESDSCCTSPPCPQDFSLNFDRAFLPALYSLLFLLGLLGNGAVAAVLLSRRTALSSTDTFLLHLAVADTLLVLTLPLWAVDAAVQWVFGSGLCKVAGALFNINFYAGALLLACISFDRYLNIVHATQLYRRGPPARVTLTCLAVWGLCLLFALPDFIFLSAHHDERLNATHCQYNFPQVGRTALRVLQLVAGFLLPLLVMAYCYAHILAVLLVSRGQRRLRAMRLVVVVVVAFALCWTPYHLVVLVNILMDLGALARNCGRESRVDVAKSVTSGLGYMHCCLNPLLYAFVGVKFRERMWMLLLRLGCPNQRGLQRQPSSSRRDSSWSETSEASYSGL
The description is as above.

Test [6] deals with T5, CXCR3 (Homo sapiens, UniProt P49682).
T5 chain: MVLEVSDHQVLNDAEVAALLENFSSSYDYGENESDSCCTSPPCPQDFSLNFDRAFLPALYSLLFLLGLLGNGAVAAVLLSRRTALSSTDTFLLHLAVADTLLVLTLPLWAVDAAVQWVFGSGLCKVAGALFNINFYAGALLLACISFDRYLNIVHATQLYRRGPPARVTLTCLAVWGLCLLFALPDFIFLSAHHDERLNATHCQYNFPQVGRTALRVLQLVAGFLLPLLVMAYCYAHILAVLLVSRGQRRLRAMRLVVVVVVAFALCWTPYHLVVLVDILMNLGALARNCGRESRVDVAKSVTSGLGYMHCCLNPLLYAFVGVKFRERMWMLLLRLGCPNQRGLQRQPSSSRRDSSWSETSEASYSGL
Described as above.

Test [7] addresses T6, CXCR3 (Homo sapiens, UniProt P49682).
T6 chain: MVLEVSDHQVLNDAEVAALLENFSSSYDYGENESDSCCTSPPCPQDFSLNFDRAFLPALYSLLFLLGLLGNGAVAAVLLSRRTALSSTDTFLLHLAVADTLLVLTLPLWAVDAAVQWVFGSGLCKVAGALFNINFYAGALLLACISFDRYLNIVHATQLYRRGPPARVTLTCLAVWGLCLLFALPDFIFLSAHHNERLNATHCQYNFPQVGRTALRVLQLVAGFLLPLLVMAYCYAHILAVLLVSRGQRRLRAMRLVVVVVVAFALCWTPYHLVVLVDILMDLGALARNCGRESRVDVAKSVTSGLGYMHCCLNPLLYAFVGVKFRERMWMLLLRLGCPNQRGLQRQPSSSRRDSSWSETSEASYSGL
The test is described as above.

The target of test [8] is T7, CXCR3 (Homo sapiens, UniProt P49682).
T7 chain: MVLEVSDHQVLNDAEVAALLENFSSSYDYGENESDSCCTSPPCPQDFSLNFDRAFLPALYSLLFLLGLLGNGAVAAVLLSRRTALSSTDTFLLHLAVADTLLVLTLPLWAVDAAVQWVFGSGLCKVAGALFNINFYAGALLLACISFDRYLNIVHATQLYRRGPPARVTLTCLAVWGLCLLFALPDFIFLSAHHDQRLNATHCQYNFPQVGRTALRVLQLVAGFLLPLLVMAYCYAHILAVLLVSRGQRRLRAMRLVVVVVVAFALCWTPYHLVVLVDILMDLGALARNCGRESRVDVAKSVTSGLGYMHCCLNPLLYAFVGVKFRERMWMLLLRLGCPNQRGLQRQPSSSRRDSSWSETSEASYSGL
The description is as above.

B1: CXCL11 (protein)
chain: FPMFKRGRCLCIGPGVKAVKVADIEKASIMYPSNNCDKIEVIITLKENKGQRCLNPKSKQARLIIKKVERKNF
For orientation: IC50 means the concentration that gives 50% inhibition. Higher therefore signals lower potency. As usually defined, the Kd is the equilibrium constant for the complex coming apart. High values mean lower affinity, low ones higher affinity. As for B1, the IC50 in test [1] is 1.2 nM; in test [2], 0.4 nM. Moreover, the Kd in test [3] was found to be 3.8 nM; in test [4] it was 26.3 nM; in test [5], 2.6 nM; in test [6], 1.4 nM; in test [7], 16 nM; in test [8] it was 0.4 nM.
